Laboratory results taken from article PMC2291572, “HDP—A Novel Heme Detoxification Protein from the Malaria Parasite” (PLoS Pathogens, 2008).

Tests used:
[1] = target: T1, HDP (Heme Detoxification Protein; PF14_0446) (Plasmodium falciparum, UniProt Q8IL04); assay: isothermal titration calorimetry; format: binding
T1 construct: full length, 205 residues; E. coli BL21 inclusion bodies, N-lauryl sarkosine solubilised

[2] = target: the molecule itself; assay: immunoblot (band of dimer size); Western blot with anti-HDP antibodies on protein extract of trophozoite-infected RBCs; gel conditions not shown
[3] = target: the molecule itself; assay: immunoblot (band of dimer size); Western blot of transfected parasites with a monoclonal antibody against the c-myc tag; protein secreted into infected RBC cytosol

Molecule | stoichiometry N [3] | other results
C=CC1=C(C)C2=Cc3c(C=C)c(C)c4[n]3[Fe]([Cl])[n]3c(c(C)c(CCC(=O)O)c3=CC3=NC(=C4)C(C)=C3CCC(=O)O)=CC1=N2 [heme] |  | Kd [1]: 80 nM
Heme Detoxification Protein (HDP), native, from P. falciparum-infected RBCs (natural protein, UniProt Q8IL04 1-205, looked up, Heme Detoxification Protein (HDP), Plasmodium falciparum, 205 amino acids; detected as intact HDP according to its predicted size; Called a dimer from bands on immunoblots and a silver-stained gel; also called native HDP; PfHDP; source: endogenous, extracts of P. falciparum trophozoite-infected RBCs and food vacuole preparation; also purified from the infected RBC extract by immunoprecipitation) MKNRFYYNLIIKRLYTRSGGLRKPQKVTNDPESINRKVYWCFEHKPVKRTIINLIYSHNELKIFSNLLNHPTVGSSLIHELSLDGPYTAFFPSNEAMQLINIESFNKLYNDENKLSEFVLNHVTKEYWLYRDLYGSSYQPWLMYNEKREAPEKLRNLLNNDLIVKIEGEFKHCNHSIYLNGSKIIRPNMKCHNGVVHIVDKPIIF |  | stoichiometry N [2]: 2
c-MycHDP (HDP with an amino-terminal c-Myc tag) (natural protein, P. falciparum, UniProt Q8IL04 1-205, looked up, Heme Detoxification Protein (HDP), Plasmodium falciparum, 205 amino acids; the tag is described as attached to the end of the protein and found intact; also called pc-MycHDP; source: P. falciparum 3D7 parasites, transfected (episomal expression), secreted into infected RBC cytosol; not shown: c-Myc, N-terminal, kept) MKNRFYYNLIIKRLYTRSGGLRKPQKVTNDPESINRKVYWCFEHKPVKRTIINLIYSHNELKIFSNLLNHPTVGSSLIHELSLDGPYTAFFPSNEAMQLINIESFNKLYNDENKLSEFVLNHVTKEYWLYRDLYGSSYQPWLMYNEKREAPEKLRNLLNNDLIVKIEGEFKHCNHSIYLNGSKIIRPNMKCHNGVVHIVDKPIIF | 2 | 
HDPc-Myc (HDP with a carboxyl-terminal c-Myc tag) (natural protein, P. falciparum, UniProt Q8IL04 1-205, looked up, Heme Detoxification Protein (HDP), Plasmodium falciparum, 205 amino acids; the tag is described as attached to the end of the protein and found intact; also called pHDPc-Myc; source: P. falciparum 3D7 parasites, transfected (episomal expression), secreted into infected RBC cytosol; not shown: c-Myc, C-terminal, kept) MKNRFYYNLIIKRLYTRSGGLRKPQKVTNDPESINRKVYWCFEHKPVKRTIINLIYSHNELKIFSNLLNHPTVGSSLIHELSLDGPYTAFFPSNEAMQLINIESFNKLYNDENKLSEFVLNHVTKEYWLYRDLYGSSYQPWLMYNEKREAPEKLRNLLNNDLIVKIEGEFKHCNHSIYLNGSKIIRPNMKCHNGVVHIVDKPIIF | 2 | 
